Measurements as given in PMC11343458, “Extracellular proteolysis of tandemly duplicated pheromone propeptides affords additional complexity to bacterial quorum sensing” (PLOS Biology, 2024).

What was measured:
[1] = target: Rap^3T (Bacillus phage phi3T); test: SEC-MALS; Rap^3T at 1 mg/ml, 50 mM Hepes (pH 7), 150 mM NaCl; apo, or preincubated with 100 μm pheromone (SRGHTS or RRGHTA) with 10 μm pheromone in the mobile phase
Rap^BA3 = Rap^BA3 overexpression; cited from earlier work
[2] = target: T1, Rap^105 labelled through its His tag (MST) (Bacillus phage phi105); test: MST
T1 chain: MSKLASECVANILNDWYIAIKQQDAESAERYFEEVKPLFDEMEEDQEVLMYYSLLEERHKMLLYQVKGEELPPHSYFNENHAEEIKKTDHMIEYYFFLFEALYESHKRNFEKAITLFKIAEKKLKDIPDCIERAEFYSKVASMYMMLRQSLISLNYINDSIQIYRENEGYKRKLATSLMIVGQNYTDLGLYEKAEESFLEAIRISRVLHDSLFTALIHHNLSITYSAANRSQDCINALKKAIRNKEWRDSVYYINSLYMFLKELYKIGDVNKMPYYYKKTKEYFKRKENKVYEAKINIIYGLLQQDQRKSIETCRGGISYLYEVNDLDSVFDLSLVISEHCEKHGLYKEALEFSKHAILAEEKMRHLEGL

[3] = target: Rap^105 (Bacillus phage phi105); test: thermal shift assay; Sypro Orange, 50 μm protein, 100 μm synthetic peptide, 20 mM Tris (pH 8), 250 mM NaCl (or filtered supernatant in the maturation assays), heated from 20 to 85°C
[4] = target: Rap^105 labelled through its His tag (MST) (Bacillus phage phi105); test: MST; Rap^105 labelled with RED-tris-NTA on the His tag at 250 nM; peptide in a 16-point 2-fold dilution from 2 to 3 x 10^-5 μm; PBS with 0,02% tween; 15 min at room temperature; Hill model

Molecule: Rap^3T (receptor)
- stoichiometry N [1]: 2

Molecule: RRGQT [peptide that relieves Rap^BA3 repression in previous work]
- relief of Rap^BA3 repression of sporulation and competence (Rap^BA3): repression is relieved

Molecule: ERPVGT
- EC50 [2]: 38.2 nM
- stabilization of the denaturation temperature [3]: 9 degrees
- EC50 [4]: 34 nM
